Reference: patent publication CN108239149A (NANJING LEGEND BIOTECHNOLOGY CO LTD, dated 2018)
Positions count from the first letter of the chain named.

B1: 29A8H8C7 (antibody, V domains shown)
VH: DVQLQGSGPGLVKPSQSLSLTCTVTGYSITSDFAWDWIRQFPGNKLEWMGHIRFSGTTSYNPSLKSRISITRDTSKNQFFLQLNSVTSEDTATYYCARSTLITKGFFDYWGQGTTLTVSS
VL: DIVMTQSHKFMSTSVGGRVSITCKASQDVSPAVAWYQQKPGQSPKLLIYWASTRHTGVPDRFTGSGSGTDFTLTISSVQTEDLALYYCQQHYSTPWTFGGGTKLEIK
notes: Mouse hybridoma clone; Made recombinantly as variable region + constant region in HEK293-6E
B2: 53C1F3D4 (antibody, V domains shown)
VH: QVQLQQSGNELARPGASVRLSCKASGYIFTGYGITWVRQRPGQGLEWIGEIFPRRVNTYYSEKFKGRATLTADISSSTAYMELRSLTSEDSAVYFCARDYDPYFALDYWGQGTSVTVSS
VL: DIVMTQSHKFMSTSVGDRVSITCKASQDVSTAVDWYQQKPGQSPKLLIYSASYRYTGVPDRFTGSGSGTAFTFTISGEQAEDLAVYYCQQHYSIPFTFGGGTKLEIK
notes: as for B1
B3: 51F3D2G4 (antibody, V domains shown)
VH: QVQLQQSGAELARPGASVRLSCKASGYIFTGYGISWVKQRTGQGLEWIGEIFPRTANTYFNEKFKGKATLTADKSSSTAYMELRSLTSEDSAVYFCARDYDPYYALDYWGQGTSVTVSS
VL: B2 VL with S20T, G77S, I94V
notes: as for B1
B4: 42G2D7C3 (antibody, V domains shown)
VH: DVQLLESGPGLVKPSQSLSLTCSVTGYSITSGYYWNWIRQFPGNNLEWMGSINYDGSNDYNPSLQDRISITRDTSKNQFFLKLNSVTTEDTATYYCARRLDYWGQGTTLIVSS
VL: QIVLTQSPAIMSASPGEKVTISCSASSFINYMYWYQQKPGSSPKPWILRTSTLASGVPARFSGSGSGTSYSLTISSMEAEDAATYYCQQYHSYPLTFGAGTKLELK
notes: Made recombinantly as variable region + constant region; also called 42G2D7D3
B5: 18B7F4G8 (antibody, V domains shown)
VH: DVQLQESGPDLVKPSQSLSLTCTVTGYSITSGYTWHWIRQFPGNKLEWMGYIHYSGSTKYNPSLKSRFSITRDTSKNQFFLQLNSMTAEDTATYYCARNSLFASWGHGTLVTVSA
VL: DIVLTQSPASLAVSLGQRATISCRASESVDTYGDSFMHWFQQKPGQPPKLLIYRASNLESGIPARFSGSGSRTDFTLTINPVEADDVATYYCQQSNEAPYTFGGGTKLEIK
notes: Mouse hybridoma clone; Detected with goat anti-mouse IgG

What was measured:
[1] = molecular target: T1, 融合至人IgG1 Fc段的人PD-L1胞外结构域的重组蛋白PD-L1-Fc (GenScript, Z03371) (human, UniProt Q9NZQ7 19-238, biotin-labelled in the PD-1 competition ELISA (site not stated)); test: indirect ELISA, PD-L1-Fc coated at 0.5 μg/ml, antibody titrated
T1 construct: extracellular domain; Bought reagent (GenScript Z03371); also called 重组PD-L1-Fc; 生物素标记的PD-L1-Fc; not shown: Human IgG1 Fc segment
T1 sequence (Q9NZQ7 19-238 limits assumed, one chain of several): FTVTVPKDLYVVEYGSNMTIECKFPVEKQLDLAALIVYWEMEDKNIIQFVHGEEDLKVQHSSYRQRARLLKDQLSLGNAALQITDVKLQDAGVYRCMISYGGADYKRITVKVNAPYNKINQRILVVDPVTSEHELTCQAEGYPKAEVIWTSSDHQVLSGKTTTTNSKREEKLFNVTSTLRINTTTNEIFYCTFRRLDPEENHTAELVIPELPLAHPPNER

[2] = molecular target: 人PD-L1 expressed on cells (表达PD-L1的CHO细胞) (human) (UniProt Q9NZQ7); test: cell-based or functional assay
[3] = molecular target: T1, 融合至人IgG1 Fc段的人PD-L1胞外结构域的重组蛋白PD-L1-Fc …; test: competition ELISA: antibody titrated against biotinylated PD-L1-Fc binding to coated human PD-1

Binder | EC50 [1] | IL-2分泌 (混合淋巴细胞反应) EC50 [2] | 相对光单位(RLU) NFAT报告细胞 EC50 [2] | IC50 [3]
B1 | 0.00498 µg/mL | 0.101 µg/mL | 0.751 µg/mL | 0.39 µg/mL
B2 | 0.00467 µg/mL | 0.0947 µg/mL | 0.576 µg/mL | 0.32 µg/mL
B3 | 0.0063 µg/mL | 0.209 µg/mL | 0.883 µg/mL | 0.4 µg/mL
B4 | 0.00458 µg/mL | 0.235 µg/mL | 1.17 µg/mL | 0.48 µg/mL
B5 | 0.00531 µg/mL | 0.359 µg/mL | 0.359 µg/mL | 
